Experimental data taken from patent publication US20250136696A1 (HARBOUR BIOMED SHANGHAI, published 2025).

T1: Human B7-2/CD86 protein, Fc tag (Acro, CD6-H5257) (human, UniProt P42081 26-247)
T1 construct: Bought
T1 sequence (looked up): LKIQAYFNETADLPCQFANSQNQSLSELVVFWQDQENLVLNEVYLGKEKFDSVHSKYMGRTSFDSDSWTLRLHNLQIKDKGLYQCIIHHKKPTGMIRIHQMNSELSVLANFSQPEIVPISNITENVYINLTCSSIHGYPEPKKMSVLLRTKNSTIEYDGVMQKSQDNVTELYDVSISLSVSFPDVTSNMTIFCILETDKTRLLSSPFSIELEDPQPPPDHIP

T2: Human B7-1/CD80 protein, Fc tag (Acro, B71-H5259) (human, UniProt P33681 35-242)
T2 construct: Bought
T2 sequence (looked up): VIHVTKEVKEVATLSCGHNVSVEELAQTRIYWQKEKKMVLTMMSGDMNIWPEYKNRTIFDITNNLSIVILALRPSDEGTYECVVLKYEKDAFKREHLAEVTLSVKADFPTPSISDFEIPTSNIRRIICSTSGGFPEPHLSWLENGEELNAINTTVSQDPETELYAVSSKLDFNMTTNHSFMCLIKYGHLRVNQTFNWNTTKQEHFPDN

T3: CD275/ICOS ligand protein, human, recombinant (Fc tag) (Sino Biological, 11559-H02H) (human, UniProt O75144 19-258)
T3 construct: Bought; also called B7H2
T3 sequence (looked up): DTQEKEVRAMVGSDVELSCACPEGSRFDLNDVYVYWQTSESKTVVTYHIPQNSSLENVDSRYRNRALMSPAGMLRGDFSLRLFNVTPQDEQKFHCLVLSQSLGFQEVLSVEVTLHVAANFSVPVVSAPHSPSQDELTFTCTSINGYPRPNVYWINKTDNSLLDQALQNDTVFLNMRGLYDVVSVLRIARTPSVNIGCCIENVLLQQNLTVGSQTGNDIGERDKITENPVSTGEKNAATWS

T4: Human B7-DC/PD-L2/CD273 protein, recombinant (Fc tag) (Sino Biological, H10292-H02H) (human, UniProt Q9BQ51 20-219)
T4 construct: Bought
T4 sequence (looked up): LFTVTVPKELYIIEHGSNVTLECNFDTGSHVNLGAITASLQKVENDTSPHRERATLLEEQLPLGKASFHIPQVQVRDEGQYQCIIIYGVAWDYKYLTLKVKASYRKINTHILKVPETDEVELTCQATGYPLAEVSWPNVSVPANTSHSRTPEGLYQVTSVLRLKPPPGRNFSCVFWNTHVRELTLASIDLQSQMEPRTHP

T5: Recombinant human B7H4 Fc chimera (R&D, 8870-B7-050) (human, UniProt Q7Z7D3 29-258)
T5 construct: Bought
T5 sequence (looked up): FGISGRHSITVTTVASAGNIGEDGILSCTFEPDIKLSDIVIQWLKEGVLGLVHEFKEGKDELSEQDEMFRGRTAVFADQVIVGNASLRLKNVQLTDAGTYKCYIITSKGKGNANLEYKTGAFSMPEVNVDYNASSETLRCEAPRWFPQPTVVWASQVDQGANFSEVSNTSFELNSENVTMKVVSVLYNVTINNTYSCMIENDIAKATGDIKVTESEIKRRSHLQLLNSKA

T6: B7-H3/CD276 protein, human, recombinant (ECD, Fc tag) (Sino Biological, 11188-H02H) (human, UniProt Q5ZPR3 29-466)
T6 construct: extracellular domain; Bought
T6 sequence (looked up): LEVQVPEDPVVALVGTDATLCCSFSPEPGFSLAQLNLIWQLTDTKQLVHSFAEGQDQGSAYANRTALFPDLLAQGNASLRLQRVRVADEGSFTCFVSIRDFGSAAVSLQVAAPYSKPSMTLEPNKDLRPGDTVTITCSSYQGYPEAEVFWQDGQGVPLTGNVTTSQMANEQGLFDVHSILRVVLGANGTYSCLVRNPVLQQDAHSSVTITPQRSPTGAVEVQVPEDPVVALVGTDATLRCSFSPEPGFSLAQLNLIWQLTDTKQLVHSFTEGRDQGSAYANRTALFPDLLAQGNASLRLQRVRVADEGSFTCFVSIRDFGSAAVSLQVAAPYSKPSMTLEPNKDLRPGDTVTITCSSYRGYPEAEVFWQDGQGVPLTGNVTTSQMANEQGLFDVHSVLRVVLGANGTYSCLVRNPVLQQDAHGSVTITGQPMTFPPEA


Assays:
Test in all cases: ELISA on coated B7 family protein
[1] = biological target: T1, Human B7-2/CD86 protein, Fc tag (Acro, …)
Protocol: (§1) B7 family proteins (see Table 7 for details) were respectively diluted to […] with PBS, added into a 96-well plate (Corning, #9018) at 100 μl/well, and incubated at 4° C. overnight. After the liquid was discarded, the plate was washed 3 times with a PBST buffer (pH 7.4, containing 0.05% tween-20), 250 μl of blocking solution containing 2% BSA was added, and the plate was incubated for 1 hour at 37° C. The blocking solution was discarded, the plate was washed 3 times with PBST buffer (pH 7.4, containing 0.05% Tween-20), the antigen-binding protein to be tested was diluted to 2 concentrations of 10 nM and 1 nM, 100 μl of the diluted antigen-binding protein was added to each well, and the plate was incubated for 1 hour at 37° C., with the isotype antibody as the control. After the plate was washed 3 times with PBST buffer (pH 7.4, containing 0.05% Tween-20), goat anti-human HRP secondary antibody (Invitrogen, #A18805) diluted 5000 times was added, and the plate was incubated at 37° C. for 1 hour in the dark. After the plate was washed 3 times with PBST buffer (pH 7.4, containing 0.05% tween-20), TMB (Biopanda, #TMB-S-003) was added at 100 μl/well, and the plate was placed at room temperature for about 30 minutes in the dark; and a stop solution (BBI life sciences, #E661006-0200) was added to each well at 50 μl/well to stop the reaction, and the absorbance at 450 nm (OD450) was determined in a microplate reader (PerkinElemer, #Enspire).

[2] = biological target: T7, Recombinant human VISTA/B7H5/PD-1H Fc chimera (R&D, 7126-B7-050) (human, UniProt Q9H7M9 33-194)
T7 construct: Bought
Protocol: as §1

[3] = biological target: T2, Human B7-1/CD80 protein, Fc tag (Acro, …)
Protocol: as §1

[4] = biological target: T3, CD275/ICOS ligand protein, human, …
Protocol: as §1

[5] = biological target: T4, Human B7-DC/PD-L2/CD273 protein, …
Protocol: as §1

[6] = biological target: T5, Recombinant human B7H4 Fc chimera (R&D, …)
Protocol: as §1

[7] = biological target: T6, B7-H3/CD276 protein, human, recombinant …
Protocol: as §1

binding result [1] | binding result [2] | binding result [3] | binding result [4] | binding result [5] | binding result [6] | binding result [7] | Binder
no binding (tested: 10 nM) | no binding (tested: 10 nM) | no binding (tested: 10 nM) | no binding (tested: 10 nM) | no binding (tested: 10 nM) | no binding (tested: 10 nM) | no binding (tested: 10 nM) | PR004263 (antibody, human IgG1, kappa, L234A L235A, Variant of PR003264; Human IgG1 with LALA mutation in Fc) heavy: not shown light: DIQLTQSPSFLSASVGDRVTITCRASQGISSYFAWYQQKPGKAPKLLIYAASTLQSGVPSRFSGSGSGTEFTLTISSLQPEDFATYYCQHLNRYPWTFGQGTKVEIKRTVAAPSVFIFPPSDEQLKSGTASVVCLLNNFYPREAKVQWKVDNALQSGNSQESVTEQDSKDSTYSLSSTLTLSKADYEKHKVYACEVTHQGLSSPVTKSFNRGEC
no binding (tested: 10 nM) | no binding (tested: 10 nM) | no binding (tested: 10 nM) | no binding (tested: 10 nM) | no binding (tested: 10 nM) | no binding (tested: 10 nM) | no binding (tested: 10 nM) | PR004260 (antibody, human IgG1, kappa, L234A L235A, Variant of PR003181; Human IgG1 with LALA mutation in Fc) heavy: not shown light: DIVMSQSPSSLAVSAGEKVTMSCKSSQSLLNSRTRKNQLAWYQQKPGQSPKLLIYWASTRESGVPDRFTGSGSGTDFTLTISSVQAEDLAVYYCKQSYNLRTFGGGTKLEIKRTVAAPSVFIFPPSDEQLKSGTASVVCLLNNFYPREAKVQWKVDNALQSGNSQESVTEQDSKDSTYSLSSTLTLSKADYEKHKVYACEVTHQGLSSPVTKSFNRGEC
